± gives the standard deviation of the averaged measurements.
Assays:
[1] = test system: VchCAST RNA-guided transposition machinery (E. coli BL21(DE3) host, lacZ target); test: relative integration efficiency (T-LR orientation) vs wild-type transposon end (log2 (normalized fold change)); transposon end mutated: right end (5 bp flank + 75 bp right end); higher = more efficient transposition
How it was run: (§1)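 Relative integration efficiency is a fold change of output over input barcode abundance, normalised to reference barcodes and log-transformed. Input plasmids and genomic integration junctions were PCR-amplified and Illumina-sequenced from E. coli BL21(DE3) co-transformed with a T7-driven effector plasmid and pUC57 donor pools of 1549 left-end or 1849 right-end transposon variants. Plating was done with 0.1 mM IPTG at 37°C for 18 h, with two biological output replicates and four reference barcodes.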

[2] = test system: VchCAST RNA-guided transposition machinery (E. coli BL21(DE3) host, lacZ target); test: relative integration efficiency (T-RL orientation) vs wild-type transposon end (log2 (normalized fold change)); transposon end mutated: right end (5 bp flank + 75 bp right end); higher = more efficient transposition
How it was run: as §1

ACATTTGTTGATACAACCATAAAATGATAATTACACCCATAAATTGATAATTATCACACCCATAAATTGATATTGCCTCTGATAACTTGGTATAGCATACATTATACGAACGGTATCGCACCGACAC
relative integration efficiency (log2) [1]: 0.663 ± 0.24 | relative integration efficiency (log2) [2]: -0.811 ± 0.36

ACATTTGTTGATACAACCATAAAATGATAATTACACCCATAAATTGATAATTATCACACCCATAAATTGATATTGCCTCTGATAGTACTGCGCGCCTGAATTCATCGTTAAATCGTCGCACCGACAC
relative integration efficiency (log2) [1]: 0.249 ± 0.17 | relative integration efficiency (log2) [2]: 0.0579 ± 0.2

ACATTTGTTGATACAACCATAAAATGATAATTACACCCATAAATTGATAATTATCACACCCATAAATTGATATTGCCTCTGATCAAAATGTGAGCGAGTAACAACCTAGTCAGACCAGCACCGACAC
relative integration efficiency (log2) [1]: -0.0747 ± 0.17 | relative integration efficiency (log2) [2]: -0.102 ± 0.08

ACATTTGTTGATACAACCATAAAATGATAATTACACCCATAAATTGATAATTATCACACCCATAAATTGATATTGCCTCTGATCAAATTGTGAGCGGATAACAATTTAGTCAGACCAGCACCGACAC
relative integration efficiency (log2) [1]: 0.00708 ± 0.62 | relative integration efficiency (log2) [2]: -0.232 ± 0.12

ACATTTGTTGATACAACCATAAAATGATAATTACACCCATAAATTGATAATTATCACACCCATAAATTGATATTGCCTCTGATCAACCATAAAATGATAATTACATAGTCAGACCAAGCACCGACAC
relative integration efficiency (log2) [1]: 0.401 ± 0.26 | relative integration efficiency (log2) [2]: 0.875 ± 0.21

ACATTTGTTGATACAACCATAAAATGATAATTACACCCATAAATTGATAATTATCACACCCATAAATTGATATTGCCTCTGATCAATATGTAACCAAAAGTAAAATAGTCAGACCAAGCACCGACAC
relative integration efficiency (log2) [1]: 0.023 ± 0.042 | relative integration efficiency (log2) [2]: -0.295 ± 0.29

ACATTTGTTGATACAACCATAAAATGATAATTACACCCATAAATTGATAATTATCACACCCATAAATTGATATTGCCTCTGATCACAACCATAAAATGATAATTATAGTCAGACCAAGCACCGACAC
relative integration efficiency (log2) [1]: -0.402 ± 0.11 | relative integration efficiency (log2) [2]: -0.0149 ± 0.23

ACATTTGTTGATACAACCATAAAATGATAATTACACCCATAAATTGATAATTATCACACCCATAAATTGATATTGCCTCTGATCAGGAATTGTGAGCGGATAACAATTTAGTCAGACGCACCGACAC
relative integration efficiency (log2) [1]: 0.397 ± 0.067 | relative integration efficiency (log2) [2]: 0.138 ± 0.16

ACATTTGTTGATACAACCATAAAATGATAATTACACCCATAAATTGATAATTATCACACCCATAAATTGATATTGCCTCTGATCAGGCAGTGAGCGCAACGCAATTTAGTCAGACCAGCACCGACAC
relative integration efficiency (log2) [1]: -0.287 ± 0.16 | relative integration efficiency (log2) [2]: -0.283 ± 0.16

ACATTTGTTGATACAACCATAAAATGATAATTACACCCATAAATTGATAATTATCACACCCATAAATTGATATTGCCTCTGATCATAAATATATAAATTAATTATTAAATTAGTCAGGCACCGACAC
relative integration efficiency (log2) [1]: 1.54 ± 0.18 | relative integration efficiency (log2) [2]: 1.34 ± 0.21

ACATTTGTTGATACAACCATAAAATGATAATTACACCCATAAATTGATAATTATCACACCCATAAATTGATATTGCCTCTGATCATAATTGTTATCCGCTCACAATTCCAGTCAGACGCACCGACAC
relative integration efficiency (log2) [1]: 0.885 ± 0.33 | relative integration efficiency (log2) [2]: -0.659 ± 0.41

ACATTTGTTGATACAACCATAAAATGATAATTACACCCATAAATTGATAATTATCACACCCATAAATTGATATTGCCTCTGATCATACAACCATAAAATGATAATTAGTCAGACCAAGCACCGACAC
relative integration efficiency (log2) [1]: -0.751 ± 0.19 | relative integration efficiency (log2) [2]: 0.403 ± 0.3

ACATTTGTTGATACAACCATAAAATGATAATTACACCCATAAATTGATAATTATCACACCCATAAATTGATATTGCCTCTGATCATAGCAACCATAAAATGATAATTATCAGACCAAGCACCGACAC
relative integration efficiency (log2) [1]: -0.337 ± 0.55 | relative integration efficiency (log2) [2]: -0.108 ± 0.26

ACATTTGTTGATACAACCATAAAATGATAATTACACCCATAAATTGATAATTATCACACCCATAAATTGATATTGCCTCTGATCATAGCGTACTAGTTAACTAGTTCGAGTCAGACCGCACCGACAC
relative integration efficiency (log2) [1]: -0.453 ± 0.046 | relative integration efficiency (log2) [2]: -0.142 ± 0.091

ACATTTGTTGATACAACCATAAAATGATAATTACACCCATAAATTGATAATTATCACACCCATAAATTGATATTGCCTCTGATCATAGTCAAACTGTATTTATATACAGTTGGACCAGCACCGACAC
relative integration efficiency (log2) [1]: 0.414 ± 0.18 | relative integration efficiency (log2) [2]: 0.00825 ± 0.2

ACATTTGTTGATACAACCATAAAATGATAATTACACCCATAAATTGATAATTATCACACCCATAAATTGATATTGCCTCTGATCATAGTCAACCATAAAATGATAATTACAGACCAAGCACCGACAC
relative integration efficiency (log2) [1]: -0.792 ± 0.34 | relative integration efficiency (log2) [2]: -0.223 ± 0.2

ACATTTGTTGATACAACCATAAAATGATAATTACACCCATAAATTGATAATTATCACACCCATAAATTGATATTGCCTCTGATCATAGTCAACTGTATATAAATACAGTTCAGACCAGCACCGACAC
relative integration efficiency (log2) [1]: 0.274 ± 0.022 | relative integration efficiency (log2) [2]: -0.116 ± 0.21

ACATTTGTTGATACAACCATAAAATGATAATTACACCCATAAATTGATAATTATCACACCCATAAATTGATATTGCCTCTGATCATAGTCAATGTGATAACAATCACAGAAGACCAAGCACCGACAC
relative integration efficiency (log2) [1]: -0.0829 ± 0.35 | relative integration efficiency (log2) [2]: 0.245 ± 0.16

ACATTTGTTGATACAACCATAAAATGATAATTACACCCATAAATTGATAATTATCACACCCATAAATTGATATTGCCTCTGATCATAGTCACAACCATAAAATGATAATTAGACCAAGCACCGACAC
relative integration efficiency (log2) [1]: -0.387 ± 0.086 | relative integration efficiency (log2) [2]: -0.196 ± 0.19

ACATTTGTTGATACAACCATAAAATGATAATTACACCCATAAATTGATAATTATCACACCCATAAATTGATATTGCCTCTGATCATAGTCAGACAACCATAAAATGATAATTACCAAGCACCGACAC
relative integration efficiency (log2) [1]: -0.436 ± 0.47 | relative integration efficiency (log2) [2]: -0.231 ± 0.065

ACATTTGTTGATACAACCATAAAATGATAATTACACCCATAAATTGATAATTATCACACCCATAAATTGATATTGCCTCTGATCATAGTCAGACCAACAACCATAAAATGATAATTAGCACCGACAC
relative integration efficiency (log2) [1]: -0.0679 ± 0.32 | relative integration efficiency (log2) [2]: 0.0312 ± 0.094

ACATTTGTTGATACAACCATAAAATGATAATTACACCCATAAATTGATAATTATCACACCCATAAATTGATATTGCCTCTGATCATAGTCAGACCAACATTTGTGAGCGGATAACAAGCACCGACAC
relative integration efficiency (log2) [1]: -0.684 ± 0.077 | relative integration efficiency (log2) [2]: -0.379 ± 0.087

ACATTTGTTGATACAACCATAAAATGATAATTACACCCATAAATTGATAATTATCACACCCATAAATTGATATTGCCTCTGATCATAGTCAGACCAACCATAAAATGATAATTACAAGCACCGACAC
relative integration efficiency (log2) [1]: -0.0296 ± 0.24 | relative integration efficiency (log2) [2]: -0.253 ± 0.23

ACATTTGTTGATACAACCATAAAATGATAATTACACCCATAAATTGATAATTATCACACCCATAAATTGATATTGCCTCTGATCATAGTCAGACCACAACCATAAAATGATAATTAAGCACCGACAC
relative integration efficiency (log2) [1]: -0.205 ± 0.37 | relative integration efficiency (log2) [2]: -0.0173 ± 0.24

ACATTTGTTGATACAACCATAAAATGATAATTACACCCATAAATTGATAATTATCACACCCATAAATTGATATTGCCTCTGATCATAGTCAGACCCAACCATAAAATGATAATTAAAGCACCGACAC
relative integration efficiency (log2) [1]: 0.192 ± 0.26 | relative integration efficiency (log2) [2]: 0.0847 ± 0.29

ACATTTGTTGATACAACCATAAAATGATAATTACACCCATAAATTGATAATTATCACACCCATAAATTGATATTGCCTCTGATCATAGTCAGATGAATTTTTATGCAAAGACCAACAGCACCGACAC
relative integration efficiency (log2) [1]: 0.652 ± 0.2 | relative integration efficiency (log2) [2]: 0.552 ± 0.3

ACATTTGTTGATACAACCATAAAATGATAATTACACCCATAAATTGATAATTATCACACCCATAAATTGATATTGCCTCTGATCATAGTCAGCAACCATAAAATGATAATTAACCAAGCACCGACAC
relative integration efficiency (log2) [1]: -0.485 ± 0.41 | relative integration efficiency (log2) [2]: -0.283 ± 0.15

ACATTTGTTGATACAACCATAAAATGATAATTACACCCATAAATTGATAATTATCACACCCATAAATTGATATTGCCTCTGATCATAGTCAGCTGAAGCGAGACACCGACCAACATTGCACCGACAC
relative integration efficiency (log2) [1]: -0.204 ± 0.33 | relative integration efficiency (log2) [2]: -0.174 ± 0.19

ACATTTGTTGATACAACCATAAAATGATAATTACACCCATAAATTGATAATTATCACACCCATAAATTGATATTGCCTCTGATCATAGTCCAACCATAAAATGATAATTAAGACCAAGCACCGACAC
relative integration efficiency (log2) [1]: -0.498 ± 1.1 | relative integration efficiency (log2) [2]: -0.312 ± 0.44

ACATTTGTTGATACAACCATAAAATGATAATTACACCCATAAATTGATAATTATCACACCCATAAATTGATATTGCCTCTGATCATAGTCGAACTAGTTAACTAGTACGCTCAGACCGCACCGACAC
relative integration efficiency (log2) [1]: 0.192 ± 0.2 | relative integration efficiency (log2) [2]: -0.00349 ± 0.18

ACATTTGTTGATACAACCATAAAATGATAATTACACCCATAAATTGATAATTATCACACCCATAAATTGATATTGCCTCTGATCATAGTCTGTGATTGTTATCACATTTCAGACCAAGCACCGACAC
relative integration efficiency (log2) [1]: 0.209 ± 0.1 | relative integration efficiency (log2) [2]: -0.0662 ± 0.076

ACATTTGTTGATACAACCATAAAATGATAATTACACCCATAAATTGATAATTATCACACCCATAAATTGATATTGCCTCTGATCATAGTCTTGTGAGCGGATAACAAAGACCAACATGCACCGACAC
relative integration efficiency (log2) [1]: -0.0553 ± 0.18 | relative integration efficiency (log2) [2]: 0.141 ± 0.16

ACATTTGTTGATACAACCATAAAATGATAATTACACCCATAAATTGATAATTATCACACCCATAAATTGATATTGCCTCTGATCATATTTAATAATTAATTTATATATTTAAGTCAGGCACCGACAC
relative integration efficiency (log2) [1]: 0.961 ± 0.58 | relative integration efficiency (log2) [2]: 0.707 ± 0.19

ACATTTGTTGATACAACCATAAAATGATAATTACACCCATAAATTGATAATTATCACACCCATAAATTGATATTGCCTCTGATCATCAACCATAAAATGATAATTAAGTCAGACCAAGCACCGACAC
relative integration efficiency (log2) [1]: 0.201 ± 0.068 | relative integration efficiency (log2) [2]: 0.146 ± 0.35

ACATTTGTTGATACAACCATAAAATGATAATTACACCCATAAATTGATAATTATCACACCCATAAATTGATATTGCCTCTGATCATGGTGTCTCGCTTCAGCAGTCAGACCAACATTGCACCGACAC
relative integration efficiency (log2) [1]: -0.507 ± 0.025 | relative integration efficiency (log2) [2]: -0.125 ± 0.18
